Like-named read-outs stand apart in the source and are kept apart here.
What was measured:
[1] = molecular target: T1, SARS-CoV-2 spike protein (SARS-CoV-2, UniProt P0DTC2 14-1273)
[2] = molecular target: T2, SARS-CoV-2 N-terminal domain (NTD) protein (SARS-CoV-2, UniProt P0DTC2 14-305); experiment: ELISA, immobilised NTD
[3] = molecular target: T3, SARS-CoV Receptor binding domain (RBD) protein (SARS-CoV, UniProt P59594 306-527); experiment: ELISA, immobilised SARS-CoV RBD
[4] = molecular target: SARS-CoV-2 spike protein, Wuhan type (WT), on pseudotype virus SARS-CoV-2 St19pv (SARS-CoV-2, UniProt P0DTC2 14-1273); experiment: cell-based or functional assay
[5] = molecular target: T1, SARS-CoV-2 spike protein; experiment: competition ELISA: antibody + biotin-ACE2 on immobilised spike
[6] = molecular target: T2, SARS-CoV-2 N-terminal domain (NTD) …; experiment: ELISA, immobilised domain protein, 200 ng/ml antibody
[7] = molecular target: T3, SARS-CoV Receptor binding domain (RBD) …; experiment: as above

Binder	binding result [2]	binding result [3]	other results
1028-61L (antibody, V domains shown) VH: EVQLVESGGGLVQPGGSLRLSCAASGIDVSSNYMSWVRQAPGKGLEWVSVIYSGGSTYYADAVRGRFTISRHNSKNTLYLQMNSLRAEDAAVYYCARDAQRYGMDVWGQGTTVTVSS VL: SYVLTQPPSVSVAPGKTARITCGGNNIGSNTVHWYQQKPGQAPVLVIYYDSDRPSGIPERFSGSNSGNTATLTISRVEAGDEADYYCQLWDSSSDHVVFGGGTKLTVLG	no binding (tested: 200 ng/ml)	no binding (tested: 200 ng/ml)	IC50 [1]: ~0.25 µg/mL
1028-87L (antibody, V domains shown) VH: not shown VL: QAGLTQPPSVSKGLRQTATLTCTGNSNNVGNQGAAWLQQHQGHPPKLLSYRNNNRPSGISERLSASRSGNTASLTITGLQPEDEADYYCSAWDSSLSAQVFGGGTKLTVLG	no binding (tested: 200 ng/ml)	no binding (tested: 200 ng/ml)	
0210-28K (antibody, V domains shown) VH: QMQLVQSGPEVKKPGTSVKVSCKASGFTFSISAVQWVRQARGQRLEWIGWIVVGSGNTNYAQKFQERVTITRDMSTSTAYMELSSLRFEDTAVYYCAAPYCGGDCSDGFDIWGQGTMVTVSS VL: not shown			IC50, inhibition of pseudotype virus infection, 1st experiment [4]: 0.0084 µg/mL; IC50, inhibition of pseudotype virus infection, 2nd experiment [4]: 0.0303 µg/mL; IC50 [5]: ~0.15 µg/mL
1028-29K (antibody, V domains shown) VH: QVQLVQSGAEVKKPGASVKVSCKASGYTFTSYYMHWVRQAPGQGLEWMGIINPSGGSTSYAQKFQGRVTMTRDTSTSTVYMELSSLRSEDTAVYYCARDGTPDIVVVPAAPLDYWGQGTLVTVSS VL: EIVLTQSPATLSLSPGERATLSCRASQSVSSYLAWYQQKPGQAPRLLIYDVSNRATGIPARFSGSGSGTDFTLTISSLEPEDFAVYYCQQRSNWPPVLTFGGGTKVEIKR		no binding (tested: 200 ng/ml)	binding result [6]: binds
1028-106K (antibody, V domains shown) VH: QLQLQESGPGLVKPSETLSLTCTVSGGSISSSYHYWGWIRQPPGKGLEWIGTIYYSGSTYYNPSLKSRVTISVDTSKNQFSLKLSSVTAADTAVYYCARRGYSYDSSGDGVDYWGQGTLVTVSS VL: DIQMTQSPSSLSASVGDRVTITCRASQGIRNDLGWYQQKPGKAPKRLIYAASSLQSGVPSRFSGSGSGTEFTLTISSLQPEDFATYYCLQHNSYPLTFGGGTKVEIKR		no binding (tested: 200 ng/ml)	binding result [6]: binds
1028-84K (antibody, V domains shown) VH: QVQLVESGGGVVQPGRSLRLSCAASGFTFSNYAMHWVFQAPGMGLEWVAVISYDGINKYYADSVKGRFTISRDNSKNTLYLQMNSLRAEDTAVYYCASHRDDYVDSADAFDIWGQGTMVTVSS VL: not shown	no binding (tested: 200 ng/ml)	no binding (tested: 200 ng/ml)	
1028-37K (antibody, V domains shown) VH: QVQLQQSGPGLVKPSQTLSLTCDISGDSVSSNSVAWNWIRQSPSRGLEWLGRTYYRSKWYNDYAVSVKSRITINPDTSKNQFSLQLNSVTPEDTAVYYCASGGYQLLYDDAFDIWGQGTMVTVSS VL: not shown	no binding (tested: 200 ng/ml)		IC50 [1]: ~0.7 µg/mL; binding result [7]: binds
0210-38L (antibody, V domains shown) VH: EVQLVESGGGLVQPGGSLRLSCAASGFTFNSYWMSWVRQAPGKGLEWVADIKQDGSEKYYVDSVKGRFTISRDNAKNSLYLQMNSLRAEDTAVYYCARQLYYYGPIDYWGQGTLVTVSS VL: NFMLTQPHSVSESPGKTVTISCTRSSGSIASNYVQWYQQRPGSSPTTVIYEDNQRPSGVPDRFSGSIDSSSNSASLTISGLKTEDEADYYCQSYDSNNRVFGGGTKLTVLG			IC50 [5]: ~1.5 µg/mL
1028-50K (antibody, V domains shown) VH: EVQLVESGGGLVKPGGSLRLSCAASGFTFSSYIMNWVRQAPGKGLEWVSSISSSSYIYYADSVKGRFTISRDNAKNSLYLQMNSLRAEDTAVYYCARIVGATSYYYYGMDVWGQGTTVTVSS VL: not shown	no binding (tested: 200 ng/ml)	no binding (tested: 200 ng/ml)	
0210-30L (antibody, V domains shown) VH: QVQLVQSGAEVKKPGSSVKVSCKASGGTFSSYAINWVRQAPGQGLEWMGRIIPILGRANYAQKFQGRVTITADKSTSTAYMELSSLRSEDTAVYYCARNPEEFSSSYVYYYYMDVWGKGTTVTVSS VL: QSALTQPRSVSGSPGQSVTISCTGTSSDVGGYSYVSWYQQHPDKAPKLMIYDVSKRPSGVPDRFSGSKSGNTASLTISGLQAEDEADYYCCSYAGSYTSWVFGGGTKLTVLG			IC50 [5]: ~0.2 µg/mL
1028-25K (antibody, V domains shown) VH: QVQLVESGGGVVQPGRSLRLSCAASEFTFSGYAMHWVRQAPGKGLEWVAVISYDGINKYYADSVKGRFTISRDNSKNTLYLQMSSLRAEDTAVYYCARDPDYGDEGAFDYWGQGTLVTVSS VL: not shown	no binding (tested: 200 ng/ml)	no binding (tested: 200 ng/ml)	
1028-05K (antibody, V domains shown) VH: QVTLKESGPVLVKPTETLTLTCTVSGFSLSNARMGVSWIRQPPGKALEWLAHIFSNDEKSYSTSLKRRLTISKDTPKSQVVLTMTNMDPVDTATYYCARTLGFWSGEYYYYYMDVWGKGTTVTVSS VL: EIVMTQSPATLSVSPGERATLSCRASQSVSSSYLAWYQQKPGQAPRLLIYGASTRATGIPARFSGSGSGTEFTLTISSLQSEDFAVYYCQHYNNWPPLFTFGPGTKVDIKR	no binding (tested: 200 ng/ml)		IC50 [1]: ≥ 10 µg/mL; binding result [7]: binds
1028-121K (antibody, V domains shown) VH: QVTLKESGPVLVKPTETLTLTCTVSGFSLSDARMGVSWIRQPPGKALEWLAHIFSNDEKSYNTSLKSRLTISKDTSKSQVVLTMTNMDPVDTATYYCARALGFWSGYYYYYYMDVWGKGTTVTVSS VL: not shown	no binding (tested: 200 ng/ml)		IC50 [1]: ~7.5 µg/mL; binding result [7]: binds
1028-137K (antibody, V domains shown) VH: QVHLVESGGGVVQPGRSLRLSCAASGFTFNSYAMHWVRQAPGKGLEWVAVISYDGNNKYYADSVKGRFTISRDNSKNTLYLQMNSLRAEDTAVYYCARDDDSGSYLYYFDYWGQGTLVTVSS VL: not shown		no binding (tested: 200 ng/ml)	binding result [6]: binds
1028-55K (antibody, V domains shown) VH: EVQLVESGGGLVQPGGSLRLSCAASGFIVSSNYMSWVRQAPGKGLEWVSLIYSGGSTYYVDSVKGRFTISRDNTKNTLYLQMNSLRAEDTAVYYCARDLDVRGALDIWGQGTMVIVSS VL: not shown	no binding (tested: 200 ng/ml)	no binding (tested: 200 ng/ml)	IC50 [1]: ~0.3 µg/mL
1028-65K (antibody, V domains shown) VH: QVQLVQSGAEVKKPGASVKVSCKASGYTFSSYYMHWVRQAPGQGLEWMGIINPSGGSTSYAQKFQGRVTMTRDTSTSTVYMELSSLRSEDTAVYFCAREGRAAAETDNNWFDPWGQGTLVTVSS VL: not shown	no binding (tested: 200 ng/ml)	no binding (tested: 200 ng/ml)	
1028-68L (antibody, V domains shown) VH: QVQLVESGGGVVQPGRSLRLSCAASGFTFSSYAMHWVRQAPGKGLEWVAVISYDGSNKYYADSVKGRFTISRDNSKNTLYLQMNSLRAEDTAVYYCARADGSGWNYWGQGTLVTVSS VL: SYELTQPPSVSVSPGQTARITCSGDPLPKQYAYWYQQKPGQAPVLVIYKDSERPSGIPERFSGSSSGTTVTLTISGVQAEDEADYYCQSADSSGTYGWEFGGGTKLTVLG	no binding (tested: 200 ng/ml)	no binding (tested: 200 ng/ml)	
1028-62L (antibody, V domains shown) VH: QVQLQESGPGLVKPSGTLSLTCAVSGGSISSSNWWSWVRQPPGKGLEWIGEIYHSGSTNYNPSLKSRVTISVDKSNNQFSLKLSSVTAADTAVYYCARGWNYDYWGQGTLVTVSS VL: QSALTQPASVSGSPGQSITISCTGTSSDVGSYNLVSWYQQHPGKAPKLMIYEGSKRPSGVSNRFSGSKSGNTASLTISGLQAEDEADYYCCSYAGSSTWVFGGGTKLTVLG		no binding (tested: 200 ng/ml)	binding result [6]: binds
1028-164L (antibody, V domains shown) VH: QVTLRESGPALVKPTQTLTLTCTFSGFSLSTSGMCVSWIRQPPGKALEWLALIDWDDDKYYSTSLKTRLTISKDTSKNQVVLTMTNMDPVDTATYYCARIPVEMATIGDYYYYGMDVWGQGTTVTVSS VL: not shown		no binding (tested: 200 ng/ml)	binding result [6]: binds
1028-30K (antibody, V domains shown) VH: QVQLVQSGAEVKKPGSSVKVSCKASGGTFNTYAISWVRQAPGQGLEWMGGIIPIFGTANYAQKFQGRVTITADESTSTAYMELSSLRSEDTAVYYCARGEPGYCSGGNCYSSDYWGQGTLVTVSS VL: not shown	no binding (tested: 200 ng/ml)	no binding (tested: 200 ng/ml)	

Reference: patent WO2022210830A1 (dated 2022)
